We go through two molecules from patent US11827885.

One data set has as its target RNase A (UniProt P61823). The data set can be described thus: cell-based or functional assay.
Data set [1] addresses T1, Murine RNase Inhibitor (New England Biolabs, Ipswich, MA), Q91VI7.
T1 chain: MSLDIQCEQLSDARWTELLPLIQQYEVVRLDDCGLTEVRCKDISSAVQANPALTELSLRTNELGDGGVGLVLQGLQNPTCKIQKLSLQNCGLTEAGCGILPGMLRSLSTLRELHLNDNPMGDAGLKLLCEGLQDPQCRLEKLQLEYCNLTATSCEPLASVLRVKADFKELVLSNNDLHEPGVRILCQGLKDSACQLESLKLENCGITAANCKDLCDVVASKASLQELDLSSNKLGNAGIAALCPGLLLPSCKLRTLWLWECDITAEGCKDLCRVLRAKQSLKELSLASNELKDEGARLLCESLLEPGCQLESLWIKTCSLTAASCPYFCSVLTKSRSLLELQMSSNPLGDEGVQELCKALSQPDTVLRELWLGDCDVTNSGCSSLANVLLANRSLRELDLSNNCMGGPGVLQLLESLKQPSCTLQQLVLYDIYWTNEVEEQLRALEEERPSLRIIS

In the data set with RNase A, “SUPERase-In (ThermoFisher Scientific, Waltham, MA)” yielded an inhibition of RNA degradation (gel), reaction at 60° C. of less than 50%.

B1: RNase A (protein)
chain: KETAAAKFERQHMDSSTSAASSSNYCNQMMKSRNLTKDRCKPVNTFVHESLADVQAVCSQKNVACKNGQTNCYQSYSTMSITDCRETGSSKYPNCAYKTTQANKHIIVACEGNPYVPVHFDASV
Consider B1, for which, in data set [1], the “RNA digestion (fluorescence of RNaseAlert RNA substrate, 37° C., 90 minutes)” value was “Three RNase A aptamers and Murine RNase Inhibitor are able to inhibit RNA digestion, but Murine Inhibitor show a slows a loss in RNase inhibition over time”.
